Experiments:
rabbit serum albumin = biological target: T1, rabbit serum albumin (rabbit, UniProt P49065 25-608); assay: SPR (Biacore 8K), albumin immobilized on CM5 chip, 25 C
T1 construct: Bought protein, immobilized on a CM5 chip by amine coupling; also called Rabbit SA
Method: (§1) The immobilization of the serum albumin to a Series S Sensor Chip CM5 surface is performed according to the manufacturer's instructions (Amine Coupling Kit BR-1000-50). Briefly, carboxyl groups on the sensor chip surfaces (flow cell 1 and 2) are activated by injecting 70 μL of a mixture containing 75 mg/mL EDC and 11.5 mg/mL NHS at 10 μL/min. Human, cynomolgus monkey, mouse, rat, pig, dog, cow and rabbit serum albumin are diluted in 10 mM sodium acetate pH 4.0 (BR-1003-49) at […] and then injected over the activated chip surfaces (flow cell 2, channel 1 to 8) at 10 μL/min for 180 sec (human, mouse, rat, pig and cow serum albumin are obtained from Sigma Aldrich (St. Louis, MO); cynomolgus monkey serum albumin is obtained from Hölzel Diagnostika (Cologne, Germany); dog serum albumin is obtained from Molecular Innovations (Novi, MI); and rabbit serum albumin is obtained from Fitzgerald Industries Intl. (Acton, MA). The various serum albumins are covalently immobilized through free amines onto a carboxymethyl dextran-coated sensor chip CM5 targeting a surface density of about 100 (62-145) RU. Excess reactive groups on the surfaces (flow cell 1 and 2) are deactivated by injecting 70 μL of 1 M ETA HCl—NaOH pH 8.5.
(§2) 150 μl of sample is individually injecting sequentially across the immobilized serum albumins on the chip's surface and dissociating for 600 sec at 50 μL/min flow rate at 25° C. The surface is regenerated by injecting 10 mM glycine-HCl pH 1.5 (BR-1003-54) at 50 μL/min for 100 sec. The resulting sensorgrams are analyzed using Biacore 8K Insight Evaluation Software (version 2.0.15.12933) 1:1 binding kinetics model fitting to calculate the binding kinetic parameter association rate (ka), dissociation rate (kd), and equilibrium dissociation constant (KD).

cow serum albumin = biological target: T2, cow serum albumin (cow, UniProt P02769 25-607); assay: SPR (Biacore 8K), albumin immobilized on CM5 chip, 25 C, steady state
T2 construct: Bought protein, immobilized on a CM5 chip by amine coupling; also called Cow SA
Method: as §1
150 μl of sample is individually injecting sequentially across the immobilized serum albumins on the chip's surface and dissociating for 600 sec at 50 μL/min flow rate at 25° C. The surface is regenerated by injecting 10 mM glycine-HCl pH 1.5 (BR-1003-54) at 50 μL/min for 100 sec. The resulting sensorgrams are analyzed using Biacore 8K Insight Evaluation Software ([…]).

human serum albumin = biological target: T3, human serum albumin (human, UniProt P02768 25-609); assay: SPR (Biacore 8K), albumin immobilized on CM5 chip, 25 C, 1:1 kinetic fit
T3 construct: Bought protein, immobilized on a CM5 chip by amine coupling; also called Human SA
Method: as §1, §2

[1] = biological target: T4, cynomolgus monkey serum albumin (cynomolgus monkey, UniProt A2V9Z4 25-608); assay: as above
T4 construct: Bought protein, immobilized on a CM5 chip by amine coupling; also called Cyno SA
Method: as §1, §2

mouse serum albumin = biological target: T5, mouse serum albumin (mouse, UniProt P07724 25-608); assay: as above
T5 construct: Bought protein, immobilized on a CM5 chip by amine coupling; also called Mouse SA
Method: as §1, §2

rat serum albumin = biological target: T6, rat serum albumin (rat, UniProt P02770 25-608); assay: as above
T6 construct: Bought protein, immobilized on a CM5 chip by amine coupling; also called Rat SA
Method: as §1, §2

pig serum albumin = biological target: T7, pig serum albumin (pig, UniProt P08835 25-607); assay: as above
T7 construct: Bought protein, immobilized on a CM5 chip by amine coupling; also called Pig SA
Method: as §1, §2

dog serum albumin = biological target: T8, dog serum albumin (dog, UniProt P49822 25-608); assay: as above
T8 construct: Bought protein, immobilized on a CM5 chip by amine coupling; also called Dog SA
Method: as §1, §2

Kd (cow serum albumin) | Kd (human serum albumin) | koff (human serum albumin) | kon (human serum albumin) | Kd [1] | koff [1] | kon [1] | Kd (mouse serum albumin) | koff (mouse serum albumin) | kon (mouse serum albumin) | Kd (rat serum albumin) | koff (rat serum albumin) | kon (rat serum albumin) | Kd (pig serum albumin) | koff (pig serum albumin) | kon (pig serum albumin) | Kd (dog serum albumin) | koff (dog serum albumin) | kon (dog serum albumin) | Binder | binding result (rabbit serum albumin)
26 nM | 0.076 nM | 0.00011 s⁻¹ | 1.4e+06 M⁻¹ s⁻¹ | 0.36 nM | 0.00054 s⁻¹ | 1.5e+06 M⁻¹ s⁻¹ | 2.4 nM | 0.004 s⁻¹ | 1.7e+06 M⁻¹ s⁻¹ | 1.6 nM | 0.0027 s⁻¹ | 1.7e+06 M⁻¹ s⁻¹ | 4.8 nM | 0.0053 s⁻¹ | 1.1e+06 M⁻¹ s⁻¹ | 0.7 nM | 0.0014 s⁻¹ | 2e+06 M⁻¹ s⁻¹ | RLN Analog 3 (other, Single-chain fusion: VHH - (G4Q)5 L1 - RLN2 B chain (desB1) - L2 - RLN2 A chain) EVQLLESGGGLVQPGGSLRLSCAASGRYIDETAVAWFRQAPGKEREFVAGIGGGVDITYYADSVKGRFTISRDNSKNTLYLQMNSLRPEDTAVYYCAARPGRPLITSKVADLYPYWGQGTLVTVSSGGGGQGGGGQGGGGQGGGGQGGGGQSWMEEVIKLCGRELVRAQIAICGMSTWSGGGSGGSGGGQLYSALANKCCHVGCTKRSLARFC | no binding (tested: 1000 nM (highest concentration tested))
25 nM | 0.063 nM | 0.00012 s⁻¹ | 1.9e+06 M⁻¹ s⁻¹ | 0.29 nM | 0.00059 s⁻¹ | 2.1e+06 M⁻¹ s⁻¹ | 2.1 nM | 0.0041 s⁻¹ | 2e+06 M⁻¹ s⁻¹ | 1.4 nM | 0.0028 s⁻¹ | 2e+06 M⁻¹ s⁻¹ | 3.7 nM | 0.0054 s⁻¹ | 1.5e+06 M⁻¹ s⁻¹ | 0.69 nM | 0.0015 s⁻¹ | 2.2e+06 M⁻¹ s⁻¹ | RLN Analog 7 (other, Single-chain fusion: VHH - (G4Q)5 L1 - RLN2 B chain (desB1) - L2 - RLN2 A chain) EVQLLESGGGLVQPGGSLRLSCAASGRYIDETAVAWFRQAPGKGREFVAGIGGGVDITYYADSVKGRFTISRDNSKNTLYLQMNSLRPEDTAVYYCAARPGRPLITSKVADLYPYWGQGTLVTVSSGGGGQGGGGQGGGGQGGGGQGGGGQSWMEEVIKLCGRELVRAQIAICGMSTWSGGGSGGSGGGQLYSALANKCCHVGCTKRSLARFC | no binding (tested: 1000 nM (highest concentration tested))
37 nM | 0.089 nM | 0.00011 s⁻¹ | 1.2e+06 M⁻¹ s⁻¹ | 0.42 nM | 0.00053 s⁻¹ | 1.3e+06 M⁻¹ s⁻¹ | 3 nM | 0.0039 s⁻¹ | 1.3e+06 M⁻¹ s⁻¹ | 2.1 nM | 0.0026 s⁻¹ | 1.2e+06 M⁻¹ s⁻¹ | 6.2 nM | 0.0053 s⁻¹ | 860000 M⁻¹ s⁻¹ | 1 nM | 0.0014 s⁻¹ | 1.4e+06 M⁻¹ s⁻¹ | RLN Analog 4 (other, Single-chain fusion: VHH - (PGPQ)8 L1 - RLN2 B chain (desB1) - L2 - RLN2 A chain) EVQLLESGGGLVQPGGSLRLSCAASGRYIDETAVAWFRQAPGKEREFVAGIGGGVDITYYADSVKGRFTISRDNSKNTLYLQMNSLRPEDTAVYYCAARPGRPLITSKVADLYPYWGQGTLVTVSSPGPQPGPQPGPQPGPQPGPQPGPQPGPQPGPQSWMEEVIKLCGRELVRAQIAICGMSTWSGGGSGGSGGGQLYSALANKCCHVGCTKRSLARFC | no binding (tested: 1000 nM (highest concentration tested))
21 nM | 0.078 nM | 0.00011 s⁻¹ | 1.5e+06 M⁻¹ s⁻¹ | 0.32 nM | 0.00059 s⁻¹ | 1.9e+06 M⁻¹ s⁻¹ | 1.8 nM | 0.0039 s⁻¹ | 2.2e+06 M⁻¹ s⁻¹ | 1.7 nM | 0.0028 s⁻¹ | 1.6e+06 M⁻¹ s⁻¹ | 4.1 nM | 0.0052 s⁻¹ | 1.3e+06 M⁻¹ s⁻¹ | 0.66 nM | 0.0015 s⁻¹ | 2.3e+06 M⁻¹ s⁻¹ | RLN Analog 8 (other, Single-chain fusion: VHH - (PGPQ)8 L1 - RLN2 B chain (desB1) - L2 - RLN2 A chain) EVQLLESGGGLVQPGGSLRLSCAASGRYIDETAVAWFRQAPGKGREFVAGIGGGVDITYYADSVKGRFTISRDNSKNTLYLQMNSLRPEDTAVYYCAARPGRPLITSKVADLYPYWGQGTLVTVSSPGPQPGPQPGPQPGPQPGPQPGPQPGPQPGPQSWMEEVIKLCGRELVRAQIAICGMSTWSGGGSGGSGGGQLYSALANKCCHVGCTKRSLARFC | no binding (tested: 1000 nM (highest concentration tested))
27 nM | 0.17 nM | 0.00021 s⁻¹ | 1.2e+06 M⁻¹ s⁻¹ | 0.48 nM | 0.00064 s⁻¹ | 1.3e+06 M⁻¹ s⁻¹ | 3.6 nM | 0.005 s⁻¹ | 1.4e+06 M⁻¹ s⁻¹ | 1.3 nM | 0.0028 s⁻¹ | 2.1e+06 M⁻¹ s⁻¹ | 7.3 nM | 0.0062 s⁻¹ | 850000 M⁻¹ s⁻¹ | 1.3 nM | 0.0017 s⁻¹ | 1.4e+06 M⁻¹ s⁻¹ | RLN Analog 11 (other, Single-chain fusion: VHH - (G4Q)5 L1 - RLN2 B chain (desB1) - L2 of thirteen residues - RLN2 A chain (desA1-4)) EVQLLESGGGLVQPGGSLRLSCAASGRYIDETAVAWFRQAPGKEREFVAGIGGGVDITYYADSVKGRFTISRDNSKNTLYLQMNSLRPEDTAVYYCAARPGRPLITSKVADLYPYWGQGTLVTVSSGGGGQGGGGQGGGGQGGGGQGGGGQSWMEEVIKLCGRELVRAQIAICGMSTWSGGGSGGSGGSGGGALANKCCHVGCTKRSLARFC | no binding (tested: 1000 nM (highest concentration tested))
30 nM | 0.14 nM | 0.00019 s⁻¹ | 1.4e+06 M⁻¹ s⁻¹ | 0.47 nM | 0.0007 s⁻¹ | 1.5e+06 M⁻¹ s⁻¹ | 2.6 nM | 0.0049 s⁻¹ | 1.8e+06 M⁻¹ s⁻¹ | 1.7 nM | 0.0033 s⁻¹ | 2e+06 M⁻¹ s⁻¹ | 4.2 nM | 0.0058 s⁻¹ | 1.4e+06 M⁻¹ s⁻¹ | 0.77 nM | 0.0016 s⁻¹ | 2.1e+06 M⁻¹ s⁻¹ | RLN Analog 12 (other, Single-chain fusion: VHH - (G4Q)5 L1 - RLN2 B chain (desB1) - L2 of thirteen residues - RLN2 A chain (desA1-4)) EVQLLESGGGLVQPGGSLRLSCAASGRYIDETAVAWFRQAPGKGREFVAGIGGGVDITYYADSVKGRFTISRDNSKNTLYLQMNSLRPEDTAVYYCAARPGRPLITSKVADLYPYWGQGTLVTVSSGGGGQGGGGQGGGGQGGGGQGGGGQSWMEEVIKLCGRELVRAQIAICGMSTWSGGGSGGSGGSGGGALANKCCHVGCTKRSLARFC | no binding (tested: 1000 nM (highest concentration tested))
34 nM | 0.16 nM | 0.00019 s⁻¹ | 1.2e+06 M⁻¹ s⁻¹ | 0.61 nM | 0.00068 s⁻¹ | 1.1e+06 M⁻¹ s⁻¹ | 3.1 nM | 0.0046 s⁻¹ | 1.5e+06 M⁻¹ s⁻¹ | 2.2 nM | 0.0032 s⁻¹ | 1.4e+06 M⁻¹ s⁻¹ | 6 nM | 0.0058 s⁻¹ | 970000 M⁻¹ s⁻¹ | 1.1 nM | 0.0017 s⁻¹ | 1.5e+06 M⁻¹ s⁻¹ | RLN Analog 14 (other, Single-chain fusion: VHH - (PGPQ)8 L1 - RLN2 A chain (desA1-4) - L2 - RLN2 B chain (desB1)) EVQLLESGGGLVQPGGSLRLSCAASGRYIDETAVAWFRQAPGKGREFVAGIGGGVDITYYADSVKGRFTISRDNSKNTLYLQMNSLRPEDTAVYYCAARPGRPLITSKVADLYPYWGQGTLVTVSSPGPQPGPQPGPQPGPQPGPQPGPQPGPQPGPQALANKCCHVGCTKRSLARFCGGGSGGSGGGSWMEEVIKLCGRELVRAQIAICGMSTWS | no binding (tested: 1000 nM (highest concentration tested))

Source: US20260125446A1 (Eli Lilly, published 2026)
